US20110086364A1 (TEKNOLOGIAN TUTKIMUSKESKUS VTT, published 2011)

Target: T1, immune complex of anti-THC T3 Fab and THC (tetrahydrocannabinol)
T1 construct: the target is the Fab-hapten complex; The Fab was labeled with europium (LANCE Eu-W1024 ITC chelate) for TR-FRET and biotinylated for phage selection; also called T3+THC complex; T3+THC immune complex
Experiment: homogeneous TR-FRET in saliva: Eu-labeled T3 Fab, Alexa Fluor 647-labeled Fab 104, spiked THC
Method: 40 μl saliva samples spiked with 0, 3.75, 7.5, 15, 30, 60 and 120 ng/ml of the following drugs: D9-THC, 11-OH-D9-THC, 11-nor-D9-THC-COOH, heroin and amphetamine were added to the wells. After short mixing, the time resolved fluorescence resonance energy transfer (TR-FRET) was measured by Victor V fluorometer (Perkin Elmer Wallac).

T1 sequence (VH, as listed by the source, chain 1 of 2): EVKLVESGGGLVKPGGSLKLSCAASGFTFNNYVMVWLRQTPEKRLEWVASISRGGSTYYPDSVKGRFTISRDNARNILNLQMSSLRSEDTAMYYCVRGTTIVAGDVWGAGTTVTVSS
T1 sequence (VL, as listed by the source, chain 2 of 2): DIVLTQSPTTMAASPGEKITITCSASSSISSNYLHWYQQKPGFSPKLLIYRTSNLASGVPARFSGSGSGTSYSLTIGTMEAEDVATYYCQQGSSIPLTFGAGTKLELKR

B1: anti-T3+THC immune complex Fab 104 (Fab, V domains shown)
VH: QVQLVQSGTEVKKPGATVKISCKFSGDNFIDYYMHWVKQAQGKGLEWLGLVDLGDGQTIYAEKFHGRGTITADSSRDTAYMELSSLRSEDTAVYYCAAAKAYRQGVMDVWGQGTLVTVSS
VL: NFMLTQPHSVSESPGKTVTISCTGSSGSIASNYVQWYQQRPGSAPTTVIYEDNQRPSGVPDRFSGSIDSSSNSASLTISGLKTEDEADYYCQSYDSSNQVFGGGTKLTVLG
notes: Labeled with Alexa Fluor 647 for the TR-FRET assay
binding result: binds
